Results as given in patent US20250236663A1 (NEURACLE SCIENCE, published 2025).
Numbering of substitutions follows the chain as printed.

Key:
FAM19A1 = FAM19A1 (UniProt Q7Z5A9 20-133); assay: Western blot on extracts of HEK293T cells stably transfected with FAM19A family genes
Protocol: (§1) HEK293T cells stably transfected with genes encoding the FAM19A family of proteins were lysed in buffer containing 50 mM Tris-HCL (pH 6.8), 2% SDS, 10% glycerol, 100 mM mercaptoethanol, and bromophenol blue. Whole-cell extracts were resolved on SDS-polyacrylamide (PAGE) gels and transferred to nitrocellulose blotting membranes in a Bio-Rad Trans-Blot electrophoresis apparatus (Hercules, CA, USA). The blots were blocked in Tris-buffered saline containing 0.3% Tween 20 and 5% skim milk, and incubated with anti-FAM19A5 antibody at room temperature for 3 h. They were then washed three times with TBS/0.3% Tween 20. Antibody binding was subsequently detected by incubation with secondary antibodies linked to horseradish peroxidase (Jackson ImmunoReserch Laboratories, West Grove, PA, USA). The blots were washed three times, and immunoreactive bands were visualized by exposure to X-ray film for 0.5 or 10 min, after application of GE healthcare ECL reagents (Buckinghamshire, UK). […] Cells were then blocked with 3% BSA and 0.1% Triton X-100 in PBS for 30 min at room temperature. Primary antibody (the anti-FAM19A5 antibody 1-65) was applied overnight at 4° C. After several washes with PBS, appropriate secondary antibodies were applied for 30 min. Subsequently, the cells were washed, mounted, and observed under a fluorescence or confocal microscope (LSM700; Zeiss, Goettingen, Germany). Nuclei were stained with Hoechst 33342.

FAM19A2 = target: T1, FAM19A2 (UniProt Q8N3H0 31-131, limits assumed); assay: as above
T1 construct: Member of the group other FAM19A subfamily proteins; also called other FAM19A subfamily proteins; other proteins in the FAM19A subfamily
Protocol: as §1

FAM19A3 = target: T2, FAM19A3 (UniProt Q7Z5A8 31-133, limits assumed); assay: as above
T2 construct: Member of the group other FAM19A subfamily proteins; also called other FAM19A subfamily proteins; other proteins in the FAM19A subfamily
Protocol: as §1

FAM19A4 = target: T3, FAM19A4 (UniProt Q96LR4 36-140, limits assumed); assay: as above
T3 construct: Member of the group other FAM19A subfamily proteins; also called other FAM19A subfamily proteins; other proteins in the FAM19A subfamily
Protocol: as §1

FAM19A5-M2 = target: T4, FAM19A5-M2; assay: ELISA on phage-displayed FAM19A5 mutants; y axis without label; IgG only bars 0.02 to 0.2
T4 construct: also called FAM19A5 mutant M2
T4 FAM19A5 mutant: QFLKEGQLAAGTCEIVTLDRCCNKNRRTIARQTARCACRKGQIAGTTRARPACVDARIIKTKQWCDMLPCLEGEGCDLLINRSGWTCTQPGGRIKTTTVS

FAM19A5-M3 = target: T5, FAM19A5-M3; assay: as above
T5 construct: also called FAM19A5 mutant M3
T5 FAM19A5 mutant: T4 FAM19A5 mutant with C21D, C22S, N23S, K24Q, N25P, R27I, T28E, I29E, A30R, R31S

FAM19A5-M4 = target: T6, FAM19A5-M4; assay: as above
T6 construct: also called FAM19A5 mutant M4
T6 FAM19A5 mutant: T4 FAM19A5 mutant with C21D, C22S, N23S, K24Q, N25P, A34V, R35K, A37S, R39F, K40P

FAM19A5-M5 = target: T7, FAM19A5-M5; assay: as above
T7 construct: also called FAM19A5 mutant M5
T7 FAM19A5 mutant: T4 FAM19A5 mutant with C21D, C22S, N23S, K24Q, N25P, A49N, R50K, A52S

T1 sequence (Q8N3H0 31-131 limits assumed): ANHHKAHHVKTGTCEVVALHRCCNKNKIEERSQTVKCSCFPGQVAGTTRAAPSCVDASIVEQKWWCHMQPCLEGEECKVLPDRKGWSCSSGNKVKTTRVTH
T3 sequence (Q96LR4 36-140 limits assumed): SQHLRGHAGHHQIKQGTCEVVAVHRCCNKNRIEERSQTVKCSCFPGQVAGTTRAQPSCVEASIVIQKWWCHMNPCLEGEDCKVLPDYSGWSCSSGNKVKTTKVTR
T2 sequence (Q7Z5A8 31-133 limits assumed): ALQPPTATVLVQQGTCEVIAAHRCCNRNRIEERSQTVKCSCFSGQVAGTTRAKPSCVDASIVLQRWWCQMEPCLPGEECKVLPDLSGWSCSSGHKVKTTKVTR

B1: chimeric anti-FAM19A5-IgG2/4 monoclonal antibody (1-65) (antibody, V domains shown)
VH: AVTLDESGGGLQTPGGALSLVCKASGFTFSSYQMGWVRQAPGKGLEWVGVINKSGSDTSYGSAVKGRATISRDNGQSTVRLQLNNLRAEDTGTYFCAKGSASYITAATIDAWGHGTEVIVSS
VL: ALTQPSSVSANPGETVKITCSGGGSSGYGYGWYQQKSPSSAPLTVIYWNDKRPSDIPSRFSGSKSGSTHTLTITGVQAEDEAVYFCGNDDYSSDSGYVGVFGAGTTLTVL
notes: Chicken-derived variable domains; also called anti-FAM19A5 antibody 1-65; Anti-FAM19A5 (1-65)
B1: no binding (FAM19A1); no binding (FAM19A2); no binding (FAM19A3). B1: no binding (FAM19A4); binds (FAM19A5-M2); binds (FAM19A5-M3). B1: binds (FAM19A5-M4); binds (FAM19A5-M5).
